The test has as its target PaMprF H566C mutant (Pseudomonas aeruginosa). Description: cross-linking + native gel or EMSA; purified enzymes in GDN and in nanodisc, with cross-linker; SDS added to the sample before loading on the BN-PAGE gel.

As for PaMprF H566C mutant (enzyme), the stoichiometry N was 2.
